According to paper PMC9239242 (mBio, 2022):

Assays:
[1] = molecular target: T1, E. coli RNA polymerase holoenzyme (native) (E. coli, UniProt P0A8V2 1-1342; P0A8T7 1-1407; P00579 1-613; P0A7Z4 1-329; P0A800 1-91); test: cell-based or functional assay
[2] = molecular target: T1, E. coli RNA polymerase holoenzyme …; conditions: both partners purified

Binder | IC50 for inhibition of rrnB P1 transcription, multiround in vitro transcription with E. coli RNAP (4 nM to 2,000 nM factor) [1] [µM] | IC50 [2] [µM]
VP882 Orf61 (Orf61 from Vibrio phage VP882) (natural protein) SDIADQAQDVIEQHLTASLANRKHNINPAIPSAKHCDDCESEIPEARRRSLPGVRLCVDCASLQEIKGRHQR | 0.27 | 1.7
VHML Orf8 (Orf8 from Vibrio phage VHML) (natural protein) MTDCSADPLDRAAALSQAHLEVSLSRIKKFEGVSAHECVECGSEIPKKRRELLQGVTDCVDCAAIKETLSKNYMR | 0.8 | 3
λ Orf73 (Orf73 from bacteriophage lambda) (natural protein) ADIIDSASEIEELQRNTAIKMRRLNHQAISATHCCECGDPIDERRRLVVQGCRTCASCQEDLELISKQRGSK | ~0.05 | 
